# Key:
# SDF-1 17AA = system: T1, SDF-1 17AA
# T1 sequence: KPVSLSYRCPCRFFESH
# [1] = system: stromal cell derived factor-1 (SDF-1alpha), unmutated
# stromal cell derived factor-1 (SDF-1alpha), unmutated, sequence (chain, as listed by the source, change not shown): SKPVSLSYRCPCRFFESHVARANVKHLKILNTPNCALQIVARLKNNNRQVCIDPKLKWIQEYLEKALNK
# matrix metalloproteinase-2 (MMP-2), sequence (P08253 110-660): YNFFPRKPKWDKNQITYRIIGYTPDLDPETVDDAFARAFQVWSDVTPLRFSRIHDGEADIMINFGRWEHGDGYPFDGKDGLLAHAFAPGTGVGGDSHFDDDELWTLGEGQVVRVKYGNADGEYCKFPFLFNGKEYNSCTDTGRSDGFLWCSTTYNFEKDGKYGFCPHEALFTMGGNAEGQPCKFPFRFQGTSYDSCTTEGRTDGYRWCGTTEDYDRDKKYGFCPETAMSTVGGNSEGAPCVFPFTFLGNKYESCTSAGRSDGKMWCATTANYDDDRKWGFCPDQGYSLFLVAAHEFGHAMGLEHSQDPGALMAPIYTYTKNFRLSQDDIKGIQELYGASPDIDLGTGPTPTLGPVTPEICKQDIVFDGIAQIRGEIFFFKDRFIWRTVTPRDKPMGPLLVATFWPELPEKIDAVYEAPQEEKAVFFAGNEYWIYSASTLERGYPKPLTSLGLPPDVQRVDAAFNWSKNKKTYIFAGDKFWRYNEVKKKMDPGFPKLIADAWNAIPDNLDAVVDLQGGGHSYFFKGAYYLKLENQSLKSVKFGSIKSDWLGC
# SDF-1(L5P), sequence (chain, as listed by the source): as the sequence (chain, as listed by the source, change not shown) above, with L6P counted along it
# SDF-1(L5E), sequence (chain, as listed by the source): as the sequence (chain, as listed by the source, change not shown) above, with L6E counted along it
# SDF-1(L5W), sequence (chain, as listed by the source): as the sequence (chain, as listed by the source, change not shown) above, with L6W counted along it
# SDF-1(S4V), sequence (chain, as listed by the source): as the sequence (chain, as listed by the source, change not shown) above, with S5V counted along it
substance,measurement,setting,value
matrix metalloproteinase-2 (MMP-2),cleavage by MMP-2: SDS-PAGE positional shift after one hour incubation,SDF-1(L5W),"unlike SDF-1, the mutants did not undergo a positional shift indicative of cleavage"
same,"cleavage by MMP-2: SDS-PAGE, 2 nmole peptide incubated with MMP-2 for 1 h at RT",SDF-1 17AA,showing cleavage of SDF-1 17AA
same,cleavage by MMP-2: SDS-PAGE positional shift after one hour incubation,SDF-1(L5E),"unlike SDF-1, the mutants did not undergo a positional shift indicative of cleavage"
same,cleavage by MMP-2: SDS-PAGE positional shift after one hour incubation,SDF-1(S4V),"unlike SDF-1, the mutants did not undergo a positional shift indicative of cleavage"
same,cleavage by MMP-2: SDS-PAGE positional shift after one hour incubation,[1],"unlike SDF-1, the mutants did not undergo a positional shift indicative of cleavage"
same,cleavage by MMP-2: SDS-PAGE positional shift after one hour incubation,SDF-1(L5P),"unlike SDF-1, the mutants did not undergo a positional shift indicative of cleavage"
